“Also recorded” adds a separate entry of the source. Where no end group is shown, it is not given here. [ ]: non-standard residue; d: D form. Orn = NCCC[C@H](N)C(=O)O
Columns and labels:
[1] = target: T1, DPPIV (Mus musculus, UniProt P28843); assay: Plasma DPPIV activity assay with mouse blood; format: biochemical; settings: peptide 0.82 mM in mouse blood, 2 h at 37° C.; relative to saline control set to 100%
T1 construct: The plasma was transferred to a 96-well assay plate for the DPPIV assay; from tissue; host or cells: pooled heparinized whole blood of ICR mice; plasma isolated after incubation
Method: Mouse blood was obtained by cardiac puncture from ICR mice and collected in heparinized blood collection tubes. Blood from several mice was pooled and aliquoted into […]. The peptide was dissolved in acetate buffered saline, pH 5.5, to a concentration of 9 mM. Of this stock solution 30 μL were added to 300 μL of blood and mixed by resuspension (concentration in blood 0.82 mM). For the control, 30 μL of blank acetate buffered saline was added to 300 μL of blood. Each peptide group was prepared in triplicate, whereas the control was prepared in six replicates. The samples were incubated at 37° C. in closed microtubes for two hours. After incubation the plasma was isolated from the samples by centrifugation at 4000 rcf. The plasma was transferred to a 96-well assay plate for the DPPIV assay. The assay was started by adding 5 μL of the DPPIV substrate gly-pro-p-nitroanilide (16 mM in de-ionized water) to 95 μl of plasma (concentration in plasma 0.8 mM) and the increase in UV absorbance (405 nm) was monitored over a 20 min time period. The rate of the production of p-nitroaniline by enzymatic cleavage of gly-pro-p-nitroanilide was taken as the activity of DPPIV (Durinx C et al., (2001) “Reference values for plasma dipeptidyl-peptidase IV activity and their association with other laboratory parameters”. Clin Chem Lab Med. 39(2):155-9.)
The effect of the peptides on the activity of DPPIV was observed. Results are presented as normalized, averaged % activity relative to saline control (set to 100%). Anything less than 100% activity represents a reduction in DPPIV activity.
In one aspect of the invention, a reduction by of DPPIV activity by about, or in one embodiment, at least, 25% (i.e. to about 75%+/−5%) was deemed to be active. A person skilled in the art would appreciate that the desired level of activity may vary depending on the use of the peptides.

[2] = tested on: S. aureus 25923; assay: In vivo protection, mice infected IP with S. aureus, peptide after infection; settings: peptide IP 4 hours after infection, 9-24 mg/kg depending on peptide, 24 hours post-infection, vs control
Method: Mice were infected with S. aureus 25923 via intraperitoneal (IP) injection. Four hours later, the peptide of SEQ ID NOs:1, 4, 5, 6, 45, and 47 were administered at 12 mg/kg and 24 mg/kg for SEQ. ID. NO. 1 (FIGS. 2A and 2B), 9.6 mg/kg for SEQ. ID. NO. 5 (FIG. 2C), 13 mg/kg for SEQ. ID. NO. 47 (FIG. 2D), 12 mg/kg for SEQ. ID. NO. 4 (FIG. 2E), 9 mg/kg for SEQ. ID. NO. 6 (FIG. 2F), and 13 mg/kg for SEQ. ID. NO. 45 (FIG. 2G), via IP injection. Twenty-four hours post-infection, surviving animals were sacrificed, and intraperitoneal lavage fluid was plated to determine residual bacterial counts (# colony forming units per ml (CFU/ml)) in the presence and absence of peptide treatment.
Dead animals were assigned the highest bacterial count of any animal in the study.

[3] = tested on: S. aureus 25923; assay: Non-antimicrobial activity, WST-1 colorimetric bacterial viability assay; format: cell-based; settings: peptide 200 μM, 2 hours growth, compared with erythromycin 120 μg/ml
Method: Bacteria (S. aureus 25923) were seeded into wells containing peptide (200 μM), vehicle (Tris), or antibiotic (erythromycin; 120 μg/ml). The bacteria were allowed to grow for 2 hours. Thereafter, bacterial viability was determined utilizing a WST-1 colorimetric viability assay (catalogue number 1 644 807; Roche Diagnostics). DMEM and DMEM+WST-1 were included as background controls.

T1 sequence (P28843 37-760 limits assumed): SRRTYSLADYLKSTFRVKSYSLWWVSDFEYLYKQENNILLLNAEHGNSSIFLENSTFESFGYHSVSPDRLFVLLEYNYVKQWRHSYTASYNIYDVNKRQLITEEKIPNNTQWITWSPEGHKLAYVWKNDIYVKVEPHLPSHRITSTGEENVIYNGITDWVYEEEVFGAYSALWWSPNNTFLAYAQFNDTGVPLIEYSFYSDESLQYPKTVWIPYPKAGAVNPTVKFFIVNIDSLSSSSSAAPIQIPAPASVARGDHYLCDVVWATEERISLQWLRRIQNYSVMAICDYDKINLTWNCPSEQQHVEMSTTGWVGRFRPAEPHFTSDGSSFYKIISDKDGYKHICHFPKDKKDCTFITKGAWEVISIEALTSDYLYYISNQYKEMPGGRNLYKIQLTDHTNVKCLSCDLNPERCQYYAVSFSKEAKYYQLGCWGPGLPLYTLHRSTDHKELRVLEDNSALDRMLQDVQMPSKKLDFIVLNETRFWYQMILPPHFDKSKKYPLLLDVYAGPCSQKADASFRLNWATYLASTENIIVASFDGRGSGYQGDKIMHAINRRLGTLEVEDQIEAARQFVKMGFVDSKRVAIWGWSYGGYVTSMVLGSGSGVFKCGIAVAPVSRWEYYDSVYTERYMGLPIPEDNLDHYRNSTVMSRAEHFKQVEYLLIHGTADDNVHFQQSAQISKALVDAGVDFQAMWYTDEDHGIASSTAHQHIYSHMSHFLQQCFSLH

Substance	% DPPIV Activity (Saline) [1]	protection (residual bacterial counts CFU/ml in intraperitoneal lavage fluid) [2]	antimicrobial activity (bacterial viability) [3]
70 (RIHPA-NH2) [compound 70]	37%	–	–
27 (RVIPA-NH2) [compound 27]	67%	–	–
61 (RIVPAC-NH2) [compound 61]	52%	–	–
3 (SRIVPA; IMMUNOLOGICAL PEPTIDE) [compound 3]	60%	–	–
46 (RVPSLL-NH2) [compound 46]	70%	–	–
41 (IRVPA-NH2) [compound 41]	49%	–	–
30 (APVIR-NH2) [compound 30]	36%	–	–
49 (IRVP-NH2) [compound 49]	56%	–	–
25 (RHVPA-NH2) [compound 25]	38%	–	–
6 (KIVPA; IMMUNOLOGICAL PEPTIDE) [compound 6]	64%	clearly demonstrated protection	–
87 (Arg-Arg-Pro-NH2) [compound 87]	72%	–	–
71 (RIWPA-NH2) [compound 71]	78%	–	–
13 (RKVPA-NH2) [compound 13]	50%	–	–
9 (RIPA; IMMUNOLOGICAL PEPTIDE) [compound 9]	51%	–	–
17 (RIVPP-NH2) [compound 17]	82%	–	–
8 (RVPA; IMMUNOLOGICAL PEPTIDE) [compound 8]	64%	–	–
73 (SPVIRH-NH2) [compound 73]	66%	–	–
24 (RIVPL-NH2) [compound 24]	74%	–	–
53 (GLKHPS-NH2) [compound 53]	68%	–	–
35 (RIVPF-NH2) [compound 35]	77%	–	–
83 (Arg-Ile-Pro-NH2) [compound 83]	47%	–	–
74 (CPVIRH-NH2) [compound 74]	45%	–	–

Substance	% DPPIV Activity (Saline) [1]	protection (residual bacterial counts CFU/ml in intraperitoneal lavage fluid) [2]	antimicrobial activity (bacterial viability) [3]
54 (RIVPAIPVSLL-NH2) [compound 54]	4%	–	–
40 (ARVPA-NH2) [compound 40]	68%	–	–
51 (Arg-Val-Pro-NH2) [compound 51]	70%	–	–
76 (RIVPE-NH2) [compound 76]	69%	–	–
72 (RIVPW-NH2) [compound 72]	71%	–	–
26 (RIPVA-NH2) [compound 26]	−4%	–	–
21 (RGVPA-NH2) [compound 21]	64%	–	–
37 (RLVPA-NH2) [compound 37]	39%	–	–
47 (KPRAVP; IMMUNOLOGICAL PEPTIDE) [compound 47]	52%	clearly demonstrated protection	lack of activity; also recorded: lacked antimicrobial activity
75 (RIEPA; IMMUNOLOGICAL PEPTIDE) [compound 75]	79%	–	–
64 (RIVPPA-NH2) [compound 64]	74%	–	–
80 (KVIPS-NH2) [compound 80]	30%	–	–
18 (RIVPGGA-NH2) [compound 18]	65%	–	–
28 (RIIPA-NH2) [compound 28]	20%	–	–
19 (GGIVPA-NH2) [compound 19]	70%	–	–
90 (RIVPA[dY]-NH2) [compound 90]	59%	–	–
14 (RIVPK-NH2) [compound 14]	67%	–	–
22 (RIVPG-NH2) [compound 22]	61%	–	–
38 (HIVPA-NH2) [compound 38]	47%	–	–
43 (SIVPA-NH2) [compound 43]	80%	–	–
29 (AVPIR-NH2) [compound 29]	0%	–	–
65 (RIGPA-NH2) [compound 65]	77%	–	–

Substance	% DPPIV Activity (Saline) [1]	protection (residual bacterial counts CFU/ml in intraperitoneal lavage fluid) [2]	antimicrobial activity (bacterial viability) [3]
50 (RVPS-NH2) [compound 50]	59%	–	–
45 (KPARVPS; IMMUNOLOGICAL PEPTIDE) [compound 45]	27%	clearly demonstrated protection	–
16 (RIPPA-NH2) [compound 16]	66%	–	–
78 (RSVPA-NH2) [compound 78]	75%	–	–
82 (KPRP-NH2) [compound 82]	52%	–	–
20 (GIVPA-NH2) [compound 20]	73%	–	–
62 ([code r][code r]VP-NH2) [compound 62]	51%	–	–
88 (Gly-Val-Pro-NH2) [compound 88]	69%	–	–
12 (RRIVPA; IMMUNOLOGICAL PEPTIDE) [compound 12]	61%	–	–
52 (PSVPGS-NH2) [compound 52]	74%	–	–
89 (Lys-His-Pro-NH2) [compound 89]	72%	–	–
81 (KVVPS-NH2) [compound 81]	57%	–	–
15 (RPVPA-NH2) [compound 15]	27%	–	–
11 (RAVPA; IMMUNOLOGICAL PEPTIDE) [compound 11]	39%	–	–
4 (SRIVP; IMMUNOLOGICAL PEPTIDE) [compound 4]	64%	clearly demonstrated protection	–
85 (Ser-Val-Pro-NH2) [compound 85]	71%	–	–
84 ([Orn]-Val-Pro-NH2; N-terminus assumed; SMILES CC(C)[C@H](NC(=O)[C@@H](N)CCCN)C(=O)N1CCC[C@H]1C(N)=O) [compound 84]	79%	–	–
86 (Lys-Val-Pro-NH2) [compound 86]	49%	–	–
77 (RIVPH-NH2) [compound 77]	53%	–	–
23 (RIVPS-NH2) [compound 23]	62%	–	–
